Results as given in patent US20110271358A1 (Dana-Farber, published 2011).
Numbering of substitutions follows the chain as printed.

B1: EH12.2H7 composite, human antibody VH4/VK3 (antibody, V domains shown)
VH: QVQLVQSGHEVKQPGASVKMSCKASGYSFTSSWIHWVRQAPGQGLEWIGYIYPSTGFTEYNQKFKDRATLTADKSTSTAYMELSSLRSEDTAVYYCARWRDSSGYHAMDYWGQGTLVTVSS
VL: EIVLTQSPATLSLSPGQRLTISCRASQSVSTSGYSYMHWYQQKPDQSPKLLIKFGSNLESGIPARFSGSGSGTDFTLTISSLEPEDFATYYCQHSWEIPYTFGQGTKLEIK
notes: V regions cloned into vectors containing human constant regions (quantified against an IgG1/kappa standard; isotype not expressly stated)
B2: 29E.2A3 composite, human antibody VH2/VK2 (antibody, V domains shown)
VH: EVQLVQSGAEVKKPGASVKMSCKASGYTFTSYVMHWVKQAPGQRLEWIGYVNPFNDGTKYNEMFKGRATLTSDKSTSTAYMELSSLRSEDTAVYYCARQAWGYPWGQGTLVTVSS
VL: DIVLTQSPATLSLSPGERATLSCRATESVEYYGTSLVQWYQQKPGQPPKLLIYAASSVDSGVPSRFSGSGSGTDFTLTINSLEAEDAAMYFCQQSRRVPYTFGQGTKLEIK
notes: as for B1
B3: 29E.2A3 composite, human antibody VH4/VK2 (antibody, V domains shown)
VH: B2 VH with M20V, K38R
VL: B2 VL
notes: as for B1
B4: 24F.10C12 composite, human antibody VH2/VK2 (antibody, V domains shown)
VH: QVQLVQSGAEVKKPGASVKMSCKASGYTFTGYTMHWVKQAPGQGLEWIGYINPRSGYTEYNQKFKDRTTLTADKSTSTAYMELSSLRSEDTAVYYCARPWFAYWGQGTLVTVSS
VL: DIVMTQSPASLSVTPGEKVTITCKSSQSLLNSGNQKNYLTWYQQKPGQPPKLLIYWASTRESGVPDRFTGSGSGTDFTLTISSLQAEDVAVYYCQNDYSYPLTFGQGTKLEIK
notes: as for B1
B5: 24F.10C12 composite, human antibody VH4/VK2 (antibody, V domains shown)
VH: B4 VH with M20V, K38R
VL: B4 VL
notes: as for B1
B6: 24F.10C12 composite, human antibody VH4/VK4 (antibody, V domains shown)
VH: B4 VH with M20V, K38R
VL: B4 VL with S10F, T69S
notes: as for B1
B7: 24F.10C12 composite, human antibody VH2/VK3 (antibody, V domains shown)
VH: B4 VH
VL: B4 VL with S10F
notes: as for B1
B8: mouse anti-human PD-1 antibody EH12.2H7 (antibody, V domains shown)
VH: QVQLQQSGAELAKPGASVQMSCKASGYSFTSSWIHWVKQRPGQGLEWIGYIYPSTGFTEYNQKFKDKATLTADKSSSTAYMQLSSLTSEDSAVYYCARWRDSSGYHAMDYWGQGTSVTVSS
VL: DIVLTQSPASLTVSLGQRATISCRASQSVSTSGYSYMHWYQQKPGQPPKLLIKFGSNLESGIPARFSGSGSGTDFTLNIHPVEEEDTATYYCQHSWEIPYTFGGGTKLEIK
notes: Mouse monoclonal antibody; also called Biotin-EH12.2H7
B9: EH12.2H7 composite, human antibody VH3/VK3 (antibody, V domains shown)
VH: B1 VH with R38K
VL: B1 VL
notes: as for B1
B10: EH12.2H7 composite, human antibody VH4/VK4 (antibody, V domains shown)
VH: B1 VH
VL: B1 VL with E1D, T89V
notes: as for B1
B11: EH12.2H7 composite, human antibody VH3/VK4 (antibody, V domains shown)
VH: B1 VH with R38K
VL: B1 VL with E1D, T89V
notes: as for B1
B12: 29E.2A3 composite, human antibody VH2/VK1 (antibody, V domains shown)
VH: B2 VH
VL: B2 VL with T10S, S12A, A84E
notes: as for B1
B13: mouse anti-human PD-L1 antibody 29E.2A3 (antibody, V domains shown)
VH: EVQLQQSGPELVKPGASVKMSCKASGYTFTSYVMHWVKQKPGQGLEWIGYVNPFNDGTKYNEMFKGKATLTSDKSSSTAYMELSSLTSEDSAVYYCARQAWGYPWGQGTLVTVSA
VL: DIVLTQSPASLAVSLGQRATISCRATESVEYYGTSLVQWYQQKPGQPPKLLIYAASSVDSGVPARFSGSGSGTDFSLTIHPVEEDDIAMYFCQQSRRVPYTFGGGTKLEIK
notes: Mouse monoclonal antibody; also called Biotin-29E.2A3
B14: mouse anti-human PD-L2 antibody 24F.10C12 (antibody, V domains shown)
VH: QVQLQQSAAELARPGASVKMSCKASGYTFTGYTMHWVKQRPGQGLEWIGYINPRSGYTEYNQKFKDKTTLTADKSSSTAYMQLSSLTSEDSAVYYCARPWFAYWGQGTLVTVSA
VL: B4 VL with A9S, S12T, P15A, I21M, T22S, L84V, V89L, Q106A, I112L
notes: Mouse monoclonal antibody; also called Biotin-24F.10C12

What follows are binders tested against T1, human Fc-PD-1 (R&D systems) (human, UniProt Q15116 25-167) (assay: competition ELISA on coated human Fc-PD-1; IC50 against mouse EH12.2H7).
T1 construct: Bought Fc fusion coated on the ELISA plate; also called human PD-1; not shown: Fc part of the bought fusion protein
T1 sequence (Q15116 25-167 limits assumed): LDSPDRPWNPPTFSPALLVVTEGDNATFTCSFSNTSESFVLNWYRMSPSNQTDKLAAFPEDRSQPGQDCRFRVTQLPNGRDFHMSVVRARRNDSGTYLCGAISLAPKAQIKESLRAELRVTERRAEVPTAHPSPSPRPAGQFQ
In the case of B1, the “fold increase in binding compared to the mouse reference” value is reported as 2 fold.

These binders were tested against T2, human Fc-PD-L1 (R&D systems) (human, UniProt Q9NZQ7 19-239) (assay: competition ELISA on coated human Fc-PD-L1; IC50 against mouse 29E.2A3).
T2 construct: Bought Fc fusion coated on the ELISA plate; also called human PD-L1; not shown: Fc part of the bought fusion protein
T2 sequence (Q9NZQ7 19-239 limits assumed): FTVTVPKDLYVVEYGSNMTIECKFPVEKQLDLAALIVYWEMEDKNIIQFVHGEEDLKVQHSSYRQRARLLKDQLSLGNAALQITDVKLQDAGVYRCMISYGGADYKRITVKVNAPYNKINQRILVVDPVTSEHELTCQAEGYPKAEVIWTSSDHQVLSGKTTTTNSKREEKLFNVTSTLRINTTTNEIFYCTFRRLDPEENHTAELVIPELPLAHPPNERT
With B2 the “fold reduced binding compared to the mouse reference” value (“fold reduced binding” for short) was 1.75 fold. In the case of B3, the “fold reduced binding” value is reported as 1.36 fold.

The binders below were run against T3, human Fc-PD-L2 (R&D systems) (human, UniProt Q9BQ51 20-219) (assay: competition ELISA on coated human Fc-PD-L2; IC50 against mouse 24F.10C12).
T3 construct: Bought Fc fusion coated on the ELISA plate; also called human PD-L2; not shown: Fc part of the bought fusion protein
T3 sequence: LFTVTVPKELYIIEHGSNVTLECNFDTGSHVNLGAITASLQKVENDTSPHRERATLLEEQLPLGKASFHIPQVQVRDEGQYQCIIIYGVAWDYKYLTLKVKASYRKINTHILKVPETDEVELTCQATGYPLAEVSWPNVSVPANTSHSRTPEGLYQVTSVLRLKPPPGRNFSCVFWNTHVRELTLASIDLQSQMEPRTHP
In the case of B4, the “fold reduced binding” value is reported as 1.13 fold. For B5, the “fold reduced binding” value was 1.13 fold. With B6 the “fold reduced binding” value was 1.13 fold. For B7, the “fold reduced binding” value was 1.13 fold.

These binders were tested against T1, human Fc-PD-1 (R&D systems) (assay: competition ELISA on coated human Fc-PD-1; competitor biotinylated EH12.2H7).
For B8, the IC50 was 1.23 µg/mL. In the case of B9, the IC50 is reported as 0.93 µg/mL. B10 gave an IC50 of 0.91 µg/mL. Work on B1 yielded an IC50 of 0.57 µg/mL. For B11, the IC50 was 0.74 µg/mL.

The binders below were run against T2, human Fc-PD-L1 (R&D systems) (assay: competition ELISA on coated human Fc-PD-L1; competitor biotinylated 29E.2A3).
Binder B2 has an IC50 of 0.49 µg/mL. B12 gave an IC50 of 0.27 µg/mL. B3 showed an IC50 of 0.38 µg/mL. In the case of B13, the IC50 is reported as 0.28 µg/mL.

These binders were tested against T3, human Fc-PD-L2 (R&D systems) (assay: competition ELISA on coated human Fc-PD-L2; competitor biotinylated 24F.10C12).
B14 showed an IC50 of 0.52 µg/mL. Work on B4 yielded an IC50 of 0.58 µg/mL. B5 was tested, and the IC50 was 0.6 µg/mL. B6 was tested, and the IC50 was 0.58 µg/mL. In the case of B7, the IC50 is reported as 0.59 µg/mL.
